Test system: HTB94 chondrosarcoma cells
Assay type: cell-based
Method: Cells (HTB94 chondrosarcoma cells, primary porcine chondrocytes, or human osteoarthritic chondrocytes) were plated overnight (6 × 10^5 cells per well of a 12-well plate) in DMEM containing 10% FCS and washed three times in serum-free DMEM.
To evaluate endocytosis of exogenously added TIMP-3, cells were incubated with recombinant TIMP-3 (1 nM in 1.5 ml DMEM with 0.1% FCS) for 0–24 hours. Conditioned media were concentrated by precipitation with trichloroacetic acid [5% (v/v), 4°C, 18 hours]. After centrifugation (13,000 rpm, 4°C, 10 minutes), protein-containing pellets were resuspended in SDS sample buffer (30 µl), electrophoresed (7 µl) on a 10% polyacrylamide gel, and immunoblotted onto polyvinylidene fluoride. After blocking in 5% (m/v) BSA in Tris-buffered saline, TIMP-3 levels were analyzed using an M2 anti-FLAG antibody (Sigma-Aldrich), an alkaline phosphatase–conjugated anti-mouse secondary antibody (Promega, Southampton, UK), and a Western Blue stabilized substrate for alkaline phosphatase (Promega). Immunoblots were analyzed by densitometry using Phoretix 1D densitometry software (TotalLab, Newcastle-upon-Tyne, UK), and TIMP-3 remaining in the medium (mean ± S.D., n = 3) was calculated relative to pixel volume at a t of 0 hours (defined as 100%).

B1: TIMP-3: C-terminally FLAG-tagged human TIMP-3 expressed in human embryonic kidney 293 cells; endogenous metalloproteinase inhibitor (protein, UniProt P35625 24-211, looked up)
Metalloproteinase inhibitor 3: CTCSPSHPQDAFCNSDIVIRAKVVGKKLVKEGPFGTLVYTIKQMKMYRGFTKMPHVQYIHTEASESLCGLKLEVNKYQYLLTGRVYDGKMYTGLCNFVERWDQLTLSQRKGLNYRYHLGCNCKIKSCYYLPCFVTSKNECLWTDMLSNFGYPGYQSKHYACIRQKGGYCSWYRGWAPPDKSIINATDP
modifications: C-terminal FLAG tag
- half-life of TIMP-3 uptake from the medium: 4.0 ± 1.3 h

From PMC5588548, “Suramin Inhibits Osteoarthritic Cartilage Degradation by Increasing Extracellular Levels of Chondroprotective Tissue Inhibitor of Metalloproteinases 3” (Molecular Pharmacology, 2017)
